The target in experiment [1] is recombinant SARS-CoV-2 M^pro (Proteros) (SARS-CoV-2). Briefly: FRET enzymatic inhibition assay.
Experiment [2] shares this target.

Results on three substances are retold here after PMC9579148.

In the case of “compound 4 (acetyl-Gly-Phe-His aldehyde, tripeptide derivative of AT1001)”, the Kd in experiment [1] came out at 1260 nM. Moreover, the IC50 of inhibition of M^pro enzymatic activity (FRET substrate cleavage) in experiment [2] was 2510 nM.
In the case of “compound 58 (octanoyl-Gly-Phe-His aldehyde) (peptide)”, the Kd in experiment [1] amounted to 1190 nM. For the same substance, the IC50 of inhibition of M^pro enzymatic activity (FRET substrate cleavage) in experiment [2] came out at 2370 nM.
On to “compound 57 (BOC-Gly-Phe-His aldehyde) (peptide)”, for which the Kd in experiment [1] amounted to 3260 nM. Further, the IC50 of inhibition of M^pro enzymatic activity (FRET substrate cleavage) in experiment [2] was determined as 6490 nM.

A word on the Kd: it is the concentration at which binding is half-saturated.
